The record followed here is US20090110693A1 (IMAXIO, published 2009).

The data set concerns the molecule itself. Kind of data set: self-association, SDS-PAGE with and without reducing agent.

B1: AVD259 protein (chicken C4 bp oligomerisation domain with N-terminal leader) (other)
chain: MALKKHHENEISHHGSKKQGDADVCGEVAYIQSVVSDCHVPTEDVKTLLEIRKLFLEIQKLKVELQGLSKEFLEHILH
notes: Expressed in E. coli; On a non-reducing gel, monomer to heptamer bands are seen because disulphide formation is incomplete; the heptamer is the highest species; also called recombinant AVD259 protein
For B1, the binding result is “binds”.

B2: AVD262 fusion protein (Plasmodium yoelii MSP1.19-chicken C4 bp oligomerisation domain) (other)
chain: MRSHIASIALNNLNKSGLVGEGESKKILAKMLNMDGMDLLGVDPKHVCVDTRDIPKNAGCFRDDNGTEEWRCLLGYKKGEGNTCVENNNPTCDINNGGCDPTASCQNAESTENSKKIICTCKEPTPNAYYEGVFCSSSGSKKQGDADVCGEVAYIQSVVSDCHVPTEDVKTLLEIRKLFLEIQKLKVELQGLSKEFLEHILH
notes: Runs as a disulphide-linked heptamer of about 140 kDa without reducing agent
Turning to B2, the binding result is given as “binds”.
